Data on six molecules can be found in article PMC9062482, “Structural and genome-wide analyses suggest that transposon-derived protein SETMAR alters transcription and splicing”.

Positions count from the first letter of the chain named.

Series [1] deals with SETMAR DNA-binding domain, residues 329 to 440 (C381R) (I359M) (L423M) (human). Nature of the series: crystal structure; SETMAR DBD 329-440 (C381R, I359M, L423M) with brominated 25-mer TIR DNA duplex, protein:DNA 1:1.2, 50 mM Hepes pH 7.5, 150 mM NaCl, 1 mM DTT; hanging drops at 20 °C, 0.1 M magnesium formate, 15% PEG3350; 2.37 Å.
The target in series [2] is T1, SETMAR full-length WT (Homo sapiens, UniProt Q53H47 14-684).
T1 sequence: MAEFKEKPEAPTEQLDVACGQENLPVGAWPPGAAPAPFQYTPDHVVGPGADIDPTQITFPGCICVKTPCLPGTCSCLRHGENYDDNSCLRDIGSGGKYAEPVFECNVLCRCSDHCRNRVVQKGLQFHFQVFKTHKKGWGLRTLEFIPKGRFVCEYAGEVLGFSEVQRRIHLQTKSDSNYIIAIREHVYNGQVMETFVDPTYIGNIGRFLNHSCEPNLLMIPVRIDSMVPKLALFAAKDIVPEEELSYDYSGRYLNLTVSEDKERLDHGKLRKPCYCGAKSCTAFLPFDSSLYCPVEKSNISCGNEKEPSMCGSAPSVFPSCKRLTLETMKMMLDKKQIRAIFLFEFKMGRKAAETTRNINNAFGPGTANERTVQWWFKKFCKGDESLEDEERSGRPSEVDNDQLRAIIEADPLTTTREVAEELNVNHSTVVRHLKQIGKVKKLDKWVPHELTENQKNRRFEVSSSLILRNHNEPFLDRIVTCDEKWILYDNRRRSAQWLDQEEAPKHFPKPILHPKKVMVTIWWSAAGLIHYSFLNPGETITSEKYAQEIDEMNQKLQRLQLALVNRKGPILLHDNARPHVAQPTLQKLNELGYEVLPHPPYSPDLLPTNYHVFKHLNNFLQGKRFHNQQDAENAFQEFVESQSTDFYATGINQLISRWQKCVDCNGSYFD
Nature of the series: competition (fluorescence anisotropy); 300 nM protein, 20 nM probe; FA and competition: 50 mM Hepes pH 7.0, 150 mM NaCl, 1 mM DTT; temperature not stated. Crystals: 50 mM Hepes pH 7.5, 150 mM NaCl, 1 mM DTT; 0.1 M Mg formate, 15% PEG3350, 20 C. Conditions: protein: recombinant; chain copies: 2; blunt. On the technique in general: Fluorescence polarisation rises when a labelled molecule tumbles more slowly, as on binding a larger partner.

Another series deals with T2, SETMAR DBD C381R (Homo sapiens, UniProt Q53H47 342-453, C394R).
T2 sequence: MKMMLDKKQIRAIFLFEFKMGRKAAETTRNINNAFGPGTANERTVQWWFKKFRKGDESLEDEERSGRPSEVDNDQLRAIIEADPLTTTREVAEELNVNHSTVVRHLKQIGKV
Kind of series: X-ray crystallography; 2.37 A; FA and competition: 50 mM Hepes pH 7.0, 150 mM NaCl, 1 mM DTT; temperature not stated. Crystals: 50 mM Hepes pH 7.5, 150 mM NaCl, 1 mM DTT; 0.1 M Mg formate, 15% PEG3350, 20 C. Conditions: protein: recombinant; tags: none (His-SUMO removed); chain copies: 2; 25 bp, 3' overhang 1 nt on each strand (A and T).

The next series deals with T3, SETMAR R432A (Homo sapiens, UniProt Q53H47 14-684, R445A).
T3 sequence: T1 sequence with R432A
Kind of series: fluorescence anisotropy; 10 nM probe; FA and competition: 50 mM Hepes pH 7.0, 150 mM NaCl, 1 mM DTT; temperature not stated. Crystals: 50 mM Hepes pH 7.5, 150 mM NaCl, 1 mM DTT; 0.1 M Mg formate, 15% PEG3350, 20 C. The note with it: protein: recombinant; chain copies: 2; label: 5' rhodamine (C6 amino) on strand 2; blunt.

The next series deals with T4, SETMAR R371A (Homo sapiens, UniProt Q53H47 14-684, R384A).
T4 sequence: T1 sequence with R371A
Described as above. Conditions: protein: recombinant; chain copies: 2; label: 5' rhodamine (C6 amino) on strand 2; blunt.

In another series the target is T5, SETMAR S428A (Homo sapiens, UniProt Q53H47 14-684, S441A).
T5 sequence: T1 sequence with S428A
The description is as above. The note with it: protein: recombinant; chain copies: 2; label: 5' rhodamine (C6 amino) on strand 2; blunt.

The target in series [3] is T1, SETMAR full-length WT. Nature of the series: fluorescence anisotropy; 20 nM probe; FA and competition: 50 mM Hepes pH 7.0, 150 mM NaCl, 1 mM DTT; temperature not stated. Crystals: 50 mM Hepes pH 7.5, 150 mM NaCl, 1 mM DTT; 0.1 M Mg formate, 15% PEG3350, 20 C. The note with it: protein: recombinant; chain copies: 2; label: 5' rhodamine (C6 amino) on strand 2; blunt.
Series [4] addresses T1, SETMAR full-length WT. Kind of series: fluorescence anisotropy; 10 nM probe; mutant comparison series; FA and competition: 50 mM Hepes pH 7.0, 150 mM NaCl, 1 mM DTT; temperature not stated. Crystals: 50 mM Hepes pH 7.5, 150 mM NaCl, 1 mM DTT; 0.1 M Mg formate, 15% PEG3350, 20 C. Conditions: protein: recombinant; chain copies: 2; label: 5' rhodamine (C6 amino) on strand 2; blunt.

Series [5] has as its target T6, SETMAR DBD C381R I359M L423M (SeMet) (Homo sapiens, UniProt Q53H47 342-453, I372M;C394R;L436M).
T6 sequence: T2 sequence with I31M, L95M
Nature of the series: X-ray crystallography; Se-SAD phasing, 2.66 A; FA and competition: 50 mM Hepes pH 7.0, 150 mM NaCl, 1 mM DTT; temperature not stated. Crystals: 50 mM Hepes pH 7.5, 150 mM NaCl, 1 mM DTT; 0.1 M Mg formate, 15% PEG3350, 20 C. Conditions: protein: recombinant; tags: none (His-SUMO removed); chain copies: 2; 25 bp, 3' overhang 1 nt on each strand (A and T).

The stoichiometry N is a count of units in the complex or per binding partner. Take “SETMAR DNA-binding domain, residues 329 to 440 (C381R) (I359M) (L423M) (domain or fragment)”: the stoichiometry N in series [1] came to 2.

B1: Mos1 TIR (dsDNA)
DNA 1: TCAGGTGTACAAGTATGAAATGTCGTTT
DNA 2: AAACGACATTTCATACTTGTACACCTGA
As to B1, the binding result with SETMAR full-length WT [2] is “no binding”.

B2: TIR crystallization duplex (dsDNA)
DNA 1: GGTTGGTGCAAAAGTAATTGCGGTTA
DNA 2: AACCGCAATTACTTTTGCACCAACCT
Take B2: the binding result in the series with SETMAR DBD C381R is recorded as “binds”.

B3: rhodamine Hsmar1 TIR probe (dsDNA)
DNA 1: TTAGGTTGGTGCAAAAGTAATTGCGGTT
DNA 2: AACCGCAATTACTTTTGCACCAACCTAA
For orientation: Kd means the constant that tells how readily two partners part at equilibrium. For the molecule B3, the Kd turned out to be 302 ± 47 nM in the series with SETMAR R432A; 521 ± 65 nM in the series with SETMAR R371A; 485 ± 58 nM in the series with SETMAR S428A; 53 ± 4 nM with SETMAR full-length WT [3]; 42 ± 5 nM with SETMAR full-length WT [4].

B4: BrdU-substituted TIR crystallization duplex (dsDNA)
DNA 1: GGTTGGTGCAAAAGTAATTGCGGTTA
DNA 2: AACCGCAATTACTTTTGCACCAACCT
modifications: 5-bromodeoxyuridine replacing underlined Ts (positions not visible in text)
For B4, the binding result in series [5] was “binds”.

B5: Hsmar1 TIR without sequence-specific binding sites (dsDNA)
DNA 1: TTAGGTTAATATAAAAGTAATTGTGGTT
DNA 2: AACCACAATTACTTTTATATTAACCTAA
With B5, the binding result with SETMAR full-length WT [2] is “no binding”.
